In patent US20260317411 (published 2026):

T1: VEGF (UniProt P15692)
T1 chain: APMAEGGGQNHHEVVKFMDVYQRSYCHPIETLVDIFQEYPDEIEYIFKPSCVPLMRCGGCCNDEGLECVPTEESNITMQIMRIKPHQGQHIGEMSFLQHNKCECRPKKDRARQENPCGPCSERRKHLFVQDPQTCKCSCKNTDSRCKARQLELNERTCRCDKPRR


Target: T1, VEGF
Experiment: SPR

Binder | Kd
scFv1 (antibody) DIQLTQSPSSLSASVGDRVTITCSASQDISNYLNWYQQKPGKAPKVLIYFTSSLHSGVPSRFSGSGSGTDFTLTISSLQPEDEATYYCQQYSTVPWTFGQGTKVEIKGGGSGGGSGGGSGGGSGGGSEVQLVESGGGLVQPGGSLRLSCAASGYDFTHYGMNWVRQAPGKGLEWVGWINTYTGEPTYAADFKRRFTFSLDTSKSTAYLQMNSLRAEDTAVYYCAKYPYYYGTSHWYFDVWGQGTLVTVSS | 0.0205 nM
scFv3 (antibody) DIQLTQSPSSLMASVGDRVTITCSASQDISNYLNWYQQKPGKAPKVLIYFTSSLHSGVPSRFSGSGSGTDFTLTISSLQPEDEATYYCQQYSTVPWTFGQGTKVEIKGGGSGGGSGGGSGGGSGGGSEVQLVESGGGLVQPGGSLRLSCAASGYDFTHYGMNWVRQAPGKGLEWVGWINTYTGEPTYAADFKRRFTFSLDTSKSTAYLQMNSLRAEDTAVYYCAKYPYYYGTSHWYFDVWGQGTLVTVSS | 0.0236 nM
